Here are results for one molecule from patent US20060110774A1.

The target in this test is rabbit anti-GRK polyclonal antibody. Description: competitive inhibition ELISA: pAb pre-incubated with pGRK, then added to immobilised rGRK. (In general: An ELISA detects its analyte on a solid surface through an enzyme-linked reagent.)

In turn, NSQSYYNGDPFITKDC [synthetic peptide pGRK (…) derived from human Granzyme K] yielded a concentration giving complete inhibition of antibody binding of 10 ng/µL.
